Reference: the supplement of paper PMC11865577

Legend:
Experiment in all cases: pull-down binding Z-score (relative to library population); higher = stronger binding
[1] = tested on: TO-3-N3 (biotin conjugate); conditions: RNA library: Library-2
Procedure, shortened: (§1)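 An RNA library (1 μg) carrying a Cy5 or Cy3 end label was heat-folded in phosphate/NaCl/KCl buffer, then incubated for 60 min at 25 °C with streptavidin beads loaded with 100 pmol of biotin-conjugated small molecule. The beads were washed three times, and bound RNA was released in hot SDS and hybridised to a DNA barcode microarray for 20 h at 55.5 °C. Each binding score was derived by subtracting the signal from beads without compound, averaging the barcoded replicate probes after removing the highest and lowest, and expressing the result as a Z-score relative to the library mean and standard deviation.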

[2] = tested on: TO-3-N3-2 (biotin conjugate); conditions: RNA library: Library-2
Procedure, shortened: as §1

TO-N3 (biotin conjugate) = conditions: RNA library: Library-2
Procedure, shortened: as §1

[3] = tested on: TO-N3-2 (biotin conjugate); conditions: RNA library: Library-2
Procedure, shortened: as §1

[4] = tested on: G-clamp-N3 (biotin conjugate); conditions: RNA library: Library-1 (pre-miRNA loops + repeats)
Procedure, shortened: as §1

Row | Sequence | pull-down binding Z-score [1] | pull-down binding Z-score [2] | pull-down binding Z-score (TO-N3 (biotin conjugate)) | pull-down binding Z-score [3] | pull-down binding Z-score [4]
1 | UGUGACCUUCAAAAUUAUGGUGAUAGUGCAACAUUACCUAAAGGCAUAAUGAUGAAUGUCGCA | -0.431 | -0.486 | -0.621 | -1.05 | 
2 | UGUGACUGGACA [SHAPE_invivo_SARS-CoV-2_Motif_313] | 0.86 | -0.233 | 0.774 | -0.14 | 
3 | UGUGAUUUUAAUAGCUUCUUAGGAGAAUGACA [SHAPE_invivo_SARS-CoV-2_Motif_573] | -0.571 | -0.182 | -0.641 | -0.333 | 
4 | UGUGCUUGUGAAAUUGUCGGUGGACAAAUUGUCACCUGUGCA | -0.722 | -0.27 | -0.833 | -0.816 | 
5 | UGUGGAAAGGGCUAUCAUCUUAUGUCCUUCCCUCA [DMSMaPseq_invitro_SARS-CoV-2_Motif_440] | -0.089 | -0.0817 | -0.154 | -0.837 | 
6 | UGUGGACAAGGGCCUUGUCUUAGACAGUCACU [hsa-mir-4318] | 0.603 | 0.359 | 0.983 |  | -0.432
7 | UGUGGACAUGUCAAUGACAUAUGGACAACAGUUUGGUCCAACUUAUUUGGAUGGAGCUGAUGUUACUAAAAUAAAACCUCAUAAUUCACA | -0.618 | -0.162 | -0.544 | -0.453 | 
8 | UGUGGUAAACAAGCUACA | -0.644 | -0.468 | -0.766 | -0.906 | 
9 | UGUGUACACACA [SHAPE_invivo_SARS-CoV-2_Motif_249] | 0.252 | -0.496 | 0.0581 | -0.584 | 
10 | UGUGUCAAUAUUUAAACACA | 0.372 | -0.00504 | 0.135 | -0.99 | 
11 | UGUGUGAUAUCAGACA | -0.5 | -0.703 | -0.639 | -0.597 | 
12 | UGUUACUUUAUAUUGACAUUAAUGGCAAUCUUCAUCCAGAUUCUGCCACUCUUGUUAGUGACA | -0.354 | -0.104 | -0.585 | -0.868 | 
13 | UGUUCACGUGGAGAGGAGUUAAACA [hsa-mir-499b] | 0.0485 | 0.375 | 0.423 |  | 0.339
14 | UGUUGCUUAUGAAAGUUUACGCCCUGACACACGUUAUGUGCUCAUGGAUGGCUCUAUUAUUCAAUUUCCUAACACCUACCUUGAAGGUUCUGUUAGAGUGGUAACA [SHAPE_invitro_SARS-CoV-2_Multi_27_ComplexLevel_1] | -0.56 | 0.0467 | -0.452 | 0.0671 | 
15 | UGUUGGCAUCAUUCUAUUGGAUUUGAUUACGUCUAUAAUCCGUUUAUGAUUGAUGUUCAACA | -0.515 | -0.183 | -0.712 | -0.625 | 
16 | UGUUGUAAAUAAGGGACACUUUGAUGGACAACA [DMSMaPseq_invitro_SARS-CoV-2_Motif_348] | -0.73 | -0.178 | -0.488 | 0.325 | 
